According to article doi:10.1101/2023.07.22.550149:

Experiments:
Test in all cases: cryo-EM structure
[1] = biological target: H. catenoides kalium channelrhodopsin (HcKCR1), wildtype (Hyphochytrium catenoides)
[2] = biological target: higher potassium selective channelrhodopsin (B1ChR2) from Bilabrum sp (Bilabrum sp)
[3] = biological target: sodium selective channelrhodopsin HcCCR from H. catenoides (Hyphochytrium catenoides)

“H. catenoides kalium channelrhodopsin (HcKCR1), wildtype (natural protein)” was tested, and the stoichiometry N [1] was 3.
Substance “higher potassium selective channelrhodopsin (B1ChR2) from Bilabrum sp (natural protein)” has a stoichiometry N [2] of 3.
Work on “sodium selective channelrhodopsin HcCCR from H. catenoides (natural protein)” yielded a stoichiometry N [3] of 3.
